Measured values published in the Immune Epitope Database (IEDB).

Columns and labels:
HLA-A*68:02 [1] = assay: IEDB peptide-MHC binding, purified MHC/competitive/radioactivity; ≥ and ≤ were set here for values at or beyond the usual limits of such assays
HLA-A*02:02 = assay: as above
HLA-A*02:06 = assay: as above
HLA-A*02:01 [2] = assay: IEDB peptide-MHC binding, cellular MHC/competitive/fluorescence; ≥ and ≤ were set here for values at or beyond the usual limits of such assays
HLA-A*02:03 = assay: as above
HLA-A*02:01 [3] = assay: IEDB peptide-MHC binding, purified MHC/competitive/radioactivity; ≥ and ≤ were set here for values at or beyond the usual limits of such assays; settings: source organism: Vaccinia virus WR
HLA-A*68:02 [4] = assay: IEDB peptide-MHC binding, cellular MHC/competitive/fluorescence; ≥ and ≤ were set here for values at or beyond the usual limits of such assays; settings: source organism: Vaccinia virus WR
[5] = source organism: Vaccinia virus WR
[6] = source organism: Mammarenavirus guanaritoense
[7] = source organism: Mammarenavirus brazilense
[8] = source organism: Mammarenavirus lassaense

Sequence | IC50 (HLA-A*68:02 [1]; [5]) [nM] | IC50 (HLA-A*02:02; [5]) [nM] | IC50 (HLA-A*02:06; [5]) [nM] | IC50 (HLA-A*02:03; [5]) [nM] | IC50 (HLA-A*02:01 [3]) [nM] | further results
EQGDIALAL | 800 | 701 | 4770 | 11100 | – | IC50 (HLA-A*02:01 [2]; [5]): 13000 nM
CTNDIYCDEI | 192 | 2460 | 4760 | 5720 | – | IC50 (HLA-A*02:01 [2]; [5]): 9060 nM
WSAIFFTTSL | – | – | – | – | – | IC50 (HLA-A*68:02 [1]; [6]): 300 nM; IC50 (HLA-A*02:02; [6]): 2000 nM; IC50 (HLA-A*02:06; [6]): 1410 nM; IC50 (HLA-A*02:01 [2]; [6]): 9090 nM; IC50 (HLA-A*02:03; [6]): 6990 nM
KNATWCLEV | – | – | – | – | – | IC50 (HLA-A*68:02 [1]; [7]): 1390 nM; IC50 (HLA-A*02:02; [7]): 1620 nM; IC50 (HLA-A*02:06; [7]): 2320 nM; IC50 (HLA-A*02:01 [2]; [7]): 12800 nM; IC50 (HLA-A*02:03; [7]): 7020 nM
IVSRSSRGV | 1020 | 264 | 476 | 13200 | 1980 | –
IVNTTYDFLA | 991 | 1250 | 956 | 8270 | 2390 | –
VMDTLNGIMM | – | 7.6 | 403 | 5160 | 33 | IC50 (HLA-A*68:02 [4]): 6920 nM
YVVIVENDNV | 99 | 2340 | 60 | 11000 | 547 | –
HLTENNLYI | – | 114 | 1810 | 14400 | 15 | IC50 (HLA-A*68:02 [4]): 5810 nM
VQTLISLNSM | – | 1560 | 853 | 5820 | 259 | IC50 (HLA-A*68:02 [4]): 50900 nM
STVDVRNIVT | 475 | 3060 | 1570 | 11600 | 3050 | –
HTYHLENDKI | 284 | 1790 | 1990 | 13700 | – | IC50 (HLA-A*02:01 [2]; [5]): 59000 nM
ETDDDGNYPL | 27 | 3590 | 1160 | 28200 | 2170 | –
SICLDYIIV | 2930 | 1460 | 689 | 8650 | 579 | –
CNYSKYWYL | – | – | – | – | – | IC50 (HLA-A*68:02 [1]; [8]): 4190 nM; IC50 (HLA-A*02:02; [8]): 3660 nM; IC50 (HLA-A*02:06; [8]): 2710 nM; IC50 (HLA-A*02:01 [2]; [8]): 16300 nM; IC50 (HLA-A*02:03; [8]): 7130 nM
YALEPRKEI | 710 | 3700 | 4110 | 7070 | – | IC50 (HLA-A*02:01 [2]; [5]): 9810 nM
